Source: paper PMC7291619

Molecular target: in vitro-polymerized and paclitaxel-stabilized microtubules (UniProt P02554)
Assay: co-sedimentation; varied concentrations of purified His-TbSpef1 incubated with in vitro-assembled, paclitaxel-stabilized microtubules at room temperature for 30 min; diluted in cushion buffer (80 mM PIPES pH 7.0, 1 mM MgCl2, 1 mM EGTA, 60% glycerol, 20 uM paclitaxel); 100,000 x g, 30°C, 30 min; pellets and supernatants immunoblotted

Sequence of in vitro-polymerized and paclitaxel-stabilized microtubules (P68363 whole entry, chain 1 of 2): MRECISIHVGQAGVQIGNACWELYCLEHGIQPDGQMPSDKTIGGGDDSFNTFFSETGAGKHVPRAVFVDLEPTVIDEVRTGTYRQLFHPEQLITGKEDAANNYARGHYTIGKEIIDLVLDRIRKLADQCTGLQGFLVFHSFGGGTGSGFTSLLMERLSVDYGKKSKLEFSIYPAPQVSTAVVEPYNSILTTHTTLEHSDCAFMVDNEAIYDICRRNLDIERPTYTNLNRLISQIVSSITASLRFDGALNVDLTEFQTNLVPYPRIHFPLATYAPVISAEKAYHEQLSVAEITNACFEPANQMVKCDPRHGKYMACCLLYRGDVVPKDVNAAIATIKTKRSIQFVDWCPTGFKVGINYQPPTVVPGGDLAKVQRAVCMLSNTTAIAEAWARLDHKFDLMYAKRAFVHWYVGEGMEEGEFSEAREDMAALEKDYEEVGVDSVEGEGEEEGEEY
Sequence of in vitro-polymerized and paclitaxel-stabilized microtubules (P02554 whole entry, chain 2 of 2): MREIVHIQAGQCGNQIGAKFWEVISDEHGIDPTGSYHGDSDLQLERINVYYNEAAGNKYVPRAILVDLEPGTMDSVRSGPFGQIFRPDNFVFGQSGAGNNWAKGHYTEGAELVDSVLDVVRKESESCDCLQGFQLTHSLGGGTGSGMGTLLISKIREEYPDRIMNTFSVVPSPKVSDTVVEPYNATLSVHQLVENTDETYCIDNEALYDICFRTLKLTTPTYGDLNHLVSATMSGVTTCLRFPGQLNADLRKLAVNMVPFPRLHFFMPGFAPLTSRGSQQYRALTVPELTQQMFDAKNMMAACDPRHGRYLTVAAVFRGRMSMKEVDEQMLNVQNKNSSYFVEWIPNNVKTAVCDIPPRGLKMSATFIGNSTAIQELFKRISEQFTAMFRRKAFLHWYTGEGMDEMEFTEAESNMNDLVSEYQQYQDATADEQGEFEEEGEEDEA

Substance: His-TbSpef1 (natural protein)
- stoichiometry N (TbSpef1 per α/β-tubulin dimer): > 1
